Results reported in paper PMC2847487.
Each block holds one molecule with its values, some of them ahead of it.

Columns and labels:
[1] = biological target: sortilin extracellular region with C-terminal biotinylation acceptor peptide, biotinylated (human) (human) (UniProt Q99523); assay: SPR
[2] = biological target: triple-site mutant proNGF (mouse, cleavage-resistant) (mouse); assay: crystal structure
[3] = biological target: C-terminal myc-tagged sortilin (UniProt Q99523); assay: co-IP
[4] = size exclusion chromatography of p75NTR alone; details: glycan lost; control: wild-type glycosylated p75NTR

- Kd [1]: 140 nM
Molecule: proNGF/p75NTR complex (preformed) (from UniProt P07174 29-190)

- stoichiometry N (p75NTR per proNGF chain (2:2)) [2]: 1
Molecule: p75NTR extracellular portion, Asn32 to Asp glycosylation site mutant (rat) (from UniProt P07174 29-190) (receptor)

- fold increase of the proNGF:sortilin interaction with calcium over EDTA [3]: 2.3 fold
Molecule: N-terminal HA tagged-proNGF (from UniProt P01139 122-241) (ligand)

B1: p75NTR: Asn32 to Asp (protein)
parent chain: MRRAGAACSAMDRLRLLLLLILGVSSGGAKETCSTGLYTHSGECCKACNLGEGVAQPCGANQTVCEPCLDNVTFSDVVSATEPCKPCTECLGLQSMSAPCVEADDAVCRCAYGYYQDEETGHCEACSVCEVGSGLVFSCQDKQNTVCEECPEGTYSDEANHVDPCLPCTVCEDTERQLRECTPWADAECEEIPGRWIPRSTPPEGSDSTAPSTQEPEVPPEQDLVPSTVADMVTTVMGSSQPVVTRGTTDNLIPVYCSILAAVVVGLVAYIAFKRWNSCKQNKQGANSRPVNQTPPPEGEKLHSDSGISVDSQSLHDQQTHTQTASGQALKGDGNLYSSLPLTKREEVEKLLNGDTWRHLAGELGYQPEHIDSFTHEACPVRALLASWGAQDSATLDALLAALRRIQRADIVESLCSESTATSPV
- oligomerisation [4]: no change
